In the Human Domainome abundance scans (Beltran et al. 2025):
± gives the uncertainty stated by the source.

B1: Friend leukemia integration 1 transcription factor, residues 116 to 197; numbered along this chain, Q01543 (parent)
chain: NMTTNERRVIVPADPTLWTQEHVRQWLEWAIKEYSLMEIDTSFFQNMDGKELCKMNKEDFLRATTLYNTEVLLSHLSYLRES

Variants of: B1
Test: abundance fitness (aPCA) (normalised: wild type 0, dead -1); higher = more abundant; growth selection in yeast, the domain comes from the species named
Conditions: Homo sapiens

Variant	abundance fitness
NMTTNERRVIVPADPTLWTQEHVRQWLEWAIKEYSLMEIDTMFFQNMDGKELCKMNKEDFLRATTLYNTEVLLSHLSYLRES [S42M]	-0.11 ± 0.054
NMTTNERRVIVPADPTLWTQEHVRQWLEWAIKEYSLMEIDTGFFQNMDGKELCKMNKEDFLRATTLYNTEVLLSHLSYLRES [S42G]	-0.062 ± 0.065
NMTTNERRVIVPADPTLWTQEHVRQWLEWAIKEYSLMEIDTEFFQNMDGKELCKMNKEDFLRATTLYNTEVLLSHLSYLRES [S42E]	-0.352 ± 0.12
NMTTNERRVIVPADPTLWTQEHVRQWLEWAIKEYSLMEIDTKFFQNMDGKELCKMNKEDFLRATTLYNTEVLLSHLSYLRES [S42K]	-0.223 ± 0.11
NMTTNERRVIVPADPTLWTQEHVRQWLEWAIKEYSLMEIDTDFFQNMDGKELCKMNKEDFLRATTLYNTEVLLSHLSYLRES [S42D]	0.084 ± 0.18
NMTTNERRVIVPADPTLWTQEHVRQWLEWAIKEYSLMEIDTPFFQNMDGKELCKMNKEDFLRATTLYNTEVLLSHLSYLRES [S42P]	-0.094 ± 0.073
NMTTNERRVIVPADPTLWTQEHVRQWLEWAIKEYSLMEIDTAFFQNMDGKELCKMNKEDFLRATTLYNTEVLLSHLSYLRES [S42A]	-0.037 ± 0.063
NMTTNERRVIVPADPTLWTQEHVRQWLEWAIKEYSLMEIDTHFFQNMDGKELCKMNKEDFLRATTLYNTEVLLSHLSYLRES [S42H]	-0.054 ± 0.26
NMTTNERRVIVPADPTLWTQEHVRQWLEWAIKEYSLMEIDTLFFQNMDGKELCKMNKEDFLRATTLYNTEVLLSHLSYLRES [S42L]	-0.134 ± 0.054
NMTTNERRVIVPADPTLWTQEHVRQWLEWAIKEYSLMEIDTNFFQNMDGKELCKMNKEDFLRATTLYNTEVLLSHLSYLRES [S42N]	0.291 ± 0.33
NMTTNERRVIVPADPTLWTQEHVRQWLEWAIKEYSLMEIDHSFFQNMDGKELCKMNKEDFLRATTLYNTEVLLSHLSYLRES [T41H]	-0.14 ± 0.17
NMTTNERRVIVPADPTLWTQEHVRQWLEWAIKEYSLMEIDASFFQNMDGKELCKMNKEDFLRATTLYNTEVLLSHLSYLRES [T41A]	-0.035 ± 0.094
NMTTNERRVIVPADPTLWTQEHVRQWLEWAIKEYSLMEIDQSFFQNMDGKELCKMNKEDFLRATTLYNTEVLLSHLSYLRES [T41Q]	-0.076 ± 0.11
NMTTNERRVIVPADPTLWTQEHVRQWLEWAIKEYSLMEIDLSFFQNMDGKELCKMNKEDFLRATTLYNTEVLLSHLSYLRES [T41L]	0.051 ± 0.063
NMTTNERRVIVPADPTLWTQEHVRQWLEWAIKEYSLMEIDGSFFQNMDGKELCKMNKEDFLRATTLYNTEVLLSHLSYLRES [T41G]	-0.129 ± 0.097
NMTTNERRVIVPADPTLWTQEHVRQWLEWAIKEYSLMEIDKSFFQNMDGKELCKMNKEDFLRATTLYNTEVLLSHLSYLRES [T41K]	0.011 ± 0.093
NMTTNERRVIVPADPTLWTQEHVRQWLEWAIKEYSLMEIDCSFFQNMDGKELCKMNKEDFLRATTLYNTEVLLSHLSYLRES [T41C]	0.015 ± 0.15
NMTTNERRVIVPADPTLWTQEHVRQWLEWAIKEYSLMEIDPSFFQNMDGKELCKMNKEDFLRATTLYNTEVLLSHLSYLRES [T41P]	0.003 ± 0.1
NMTTNERRVIVPADPTLWTQEHVRQWLEWAIKEYSLMEIDDSFFQNMDGKELCKMNKEDFLRATTLYNTEVLLSHLSYLRES [T41D]	0.063 ± 0.21
NMTTNERRVIVPADPTLWTQEHVRQWLEWAIKEYSLMEIDVSFFQNMDGKELCKMNKEDFLRATTLYNTEVLLSHLSYLRES [T41V]	-0.09 ± 0.1
NMTTNERRVIVPADPTLWTQEHVRQWLEWAIKEYSLMEIDNSFFQNMDGKELCKMNKEDFLRATTLYNTEVLLSHLSYLRES [T41N]	-0.103 ± 0.17
NMTTNERRVIVPADPTLWTQEHVRQWLEWAIKEYSLMEIDRSFFQNMDGKELCKMNKEDFLRATTLYNTEVLLSHLSYLRES [T41R]	-0.079 ± 0.062
NMTTNERRVIVPADPTLWTQEHVRQWLEWAIKEYSLMEIDESFFQNMDGKELCKMNKEDFLRATTLYNTEVLLSHLSYLRES [T41E]	-0.08 ± 0.11

Variant	abundance fitness
NMTTNERRVIVPADPTLWTQEHVRQWLEWAIKEYSLMEIDFSFFQNMDGKELCKMNKEDFLRATTLYNTEVLLSHLSYLRES [T41F]	0.302 ± 0.19
NMTTNERRVIVPADPTLWTQEHVRQWLEWAIKEYSLMEIDYSFFQNMDGKELCKMNKEDFLRATTLYNTEVLLSHLSYLRES [T41Y]	0.051 ± 0.12
NMTTNERRVIVPADPTLWTQEHVRQWLEWAIKEYSLMTIDTSFFQNMDGKELCKMNKEDFLRATTLYNTEVLLSHLSYLRES [E38T]	-0.145 ± 0.09
NMTTNERRVIVPADPTLWTQEHVRQWLEWAIKEYSLMSIDTSFFQNMDGKELCKMNKEDFLRATTLYNTEVLLSHLSYLRES [E38S]	-0.068 ± 0.073
NMTTNERRVIVPADPTLWTQEHVRQWLEWAIKEYSLMVIDTSFFQNMDGKELCKMNKEDFLRATTLYNTEVLLSHLSYLRES [E38V]	-0.231 ± 0.096
NMTTNERRVIVPADPTLWTQEHVRQWLEWAIKEYSLMMIDTSFFQNMDGKELCKMNKEDFLRATTLYNTEVLLSHLSYLRES [E38M]	-0.09 ± 0.12
NMTTNERRVIVPADPTLWTQEHVRQWLEWAIKEYSLMLIDTSFFQNMDGKELCKMNKEDFLRATTLYNTEVLLSHLSYLRES [E38L]	-0.04 ± 0.061
NMTTNERRVIVPADPTLWTQEHVRQWLEWAIKEYSLMHIDTSFFQNMDGKELCKMNKEDFLRATTLYNTEVLLSHLSYLRES [E38H]	-0.231 ± 0.15
NMTTNERRVIVPADPTLWTQEHVRQWLEWAIKEYSLMRIDTSFFQNMDGKELCKMNKEDFLRATTLYNTEVLLSHLSYLRES [E38R]	-0.203 ± 0.061
NMTTNERRVIVPADPTLWTQEHVRQWLEWAIKEYSLMNIDTSFFQNMDGKELCKMNKEDFLRATTLYNTEVLLSHLSYLRES [E38N]	-0.397 ± 0.23
NMTTNERRVIVPADPTLWTQEHVRQWLEWAIKEYSLMKIDTSFFQNMDGKELCKMNKEDFLRATTLYNTEVLLSHLSYLRES [E38K]	-0.087 ± 0.17
NMTTNERRVIVPADPTLWTQEHVRQWLEWAIKEYSLMWIDTSFFQNMDGKELCKMNKEDFLRATTLYNTEVLLSHLSYLRES [E38W]	-0.349 ± 0.11
NMTTNERRVIVPADPTLWTQEHVRQWLEWAIKEYSLMQIDTSFFQNMDGKELCKMNKEDFLRATTLYNTEVLLSHLSYLRES [E38Q]	-0.215 ± 0.11
NMTTNERRVIVPADPTLWTQEHVRQWLEWAIKEYSLMIIDTSFFQNMDGKELCKMNKEDFLRATTLYNTEVLLSHLSYLRES [E38I]	-0.32 ± 0.052
NMTTNERRVIVPADPTLWTQEHVRQWLEWAIKEYSLMECDTSFFQNMDGKELCKMNKEDFLRATTLYNTEVLLSHLSYLRES [I39C]	-0.102 ± 0.12
NMTTNERRVIVPADPTLWTQEHVRQWLEWAIKEYSLMEVDTSFFQNMDGKELCKMNKEDFLRATTLYNTEVLLSHLSYLRES [I39V]	0.019 ± 0.072
NMTTNERRVIVPADPTLWTQEHVRQWLEWAIKEYSLMEFDTSFFQNMDGKELCKMNKEDFLRATTLYNTEVLLSHLSYLRES [I39F]	-0.112 ± 0.26
NMTTNERRVIVPADPTLWTQEHVRQWLEWAIKEYSLMEKDTSFFQNMDGKELCKMNKEDFLRATTLYNTEVLLSHLSYLRES [I39K]	-1.04 ± 0.48
NMTTNERRVIVPADPTLWTQEHVRQWLEWAIKEYSLMEPDTSFFQNMDGKELCKMNKEDFLRATTLYNTEVLLSHLSYLRES [I39P]	-0.654 ± 0.14
NMTTNERRVIVPADPTLWTQEHVRQWLEWAIKEYSLMERDTSFFQNMDGKELCKMNKEDFLRATTLYNTEVLLSHLSYLRES [I39R]	-1 ± 0.2
NMTTNERRVIVPADPTLWTQEHVRQWLEWAIKEYSLMEWDTSFFQNMDGKELCKMNKEDFLRATTLYNTEVLLSHLSYLRES [I39W]	-0.57 ± 0.091
NMTTNERRVIVPADPTLWTQEHVRQWLEWAIKEYSLMEEDTSFFQNMDGKELCKMNKEDFLRATTLYNTEVLLSHLSYLRES [I39E]	-0.261 ± 0.13
NMTTNERRVIVPADPTLWTQEHVRQWLEWAIKEYSLMETDTSFFQNMDGKELCKMNKEDFLRATTLYNTEVLLSHLSYLRES [I39T]	-0.159 ± 0.092

Variant	abundance fitness
NMTTNERRVIVPADPTLWTQEHVRQWLEWAIKEYSLMEMDTSFFQNMDGKELCKMNKEDFLRATTLYNTEVLLSHLSYLRES [I39M]	0.027 ± 0.07
NMTTNERRVIVPADPTLWTQEHVRQWLEWAIKEYSLMEQDTSFFQNMDGKELCKMNKEDFLRATTLYNTEVLLSHLSYLRES [I39Q]	-0.743 ± 0.18
NMTTNERRVIVPADPTLWTQEHVRQWLEWAIKEYSLMEADTSFFQNMDGKELCKMNKEDFLRATTLYNTEVLLSHLSYLRES [I39A]	-0.259 ± 0.079
NMTTNERRVIVPADPTLWTQEHVRQWLEWAIKEYSLMEGDTSFFQNMDGKELCKMNKEDFLRATTLYNTEVLLSHLSYLRES [I39G]	-0.85 ± 0.13
NMTTNERRVIVPADPTLWTQEHVRQWLEWAIKEYSLMELDTSFFQNMDGKELCKMNKEDFLRATTLYNTEVLLSHLSYLRES [I39L]	-0.017 ± 0.06
NMTTNERRVIVPADPTLWTQEHVRQWLEWAIKEYSLMEINTSFFQNMDGKELCKMNKEDFLRATTLYNTEVLLSHLSYLRES [D40N]	0.162 ± 0.14
NMTTNERRVIVPADPTLWTQEHVRQWLEWAIKEYSLMEISTSFFQNMDGKELCKMNKEDFLRATTLYNTEVLLSHLSYLRES [D40S]	-0.217 ± 0.092
NMTTNERRVIVPADPTLWTQEHVRQWLEWAIKEYSLMEIATSFFQNMDGKELCKMNKEDFLRATTLYNTEVLLSHLSYLRES [D40A]	-0.486 ± 0.1
NMTTNERRVIVPADPTLWTQEHVRQWLEWAIKEYSLMEIKTSFFQNMDGKELCKMNKEDFLRATTLYNTEVLLSHLSYLRES [D40K]	-0.276 ± 0.18
NMTTNERRVIVPADPTLWTQEHVRQWLEWAIKEYSLMEIETSFFQNMDGKELCKMNKEDFLRATTLYNTEVLLSHLSYLRES [D40E]	-0.043 ± 0.11
NMTTNERRVIVPADPTLWTQEHVRQWLEWAIKEYSLMEIQTSFFQNMDGKELCKMNKEDFLRATTLYNTEVLLSHLSYLRES [D40Q]	-0.252 ± 0.17
NMTTNERRVIVPADPTLWTQEHVRQWLEWAIKEYSLMEIITSFFQNMDGKELCKMNKEDFLRATTLYNTEVLLSHLSYLRES [D40I]	-0.576 ± 0.36
NMTTNERRVIVPADPTLWTQEHVRQWLEWAIKEYSLMEIGTSFFQNMDGKELCKMNKEDFLRATTLYNTEVLLSHLSYLRES [D40G]	-0.631 ± 0.076
NMTTNERRVIVPADPTLWTQEHVRQWLEWAIKEYSLMEILTSFFQNMDGKELCKMNKEDFLRATTLYNTEVLLSHLSYLRES [D40L]	-0.921 ± 0.12
NMTTNERRVIVPADPTLWTQEHVRQWLEWAIKEYSLMEIWTSFFQNMDGKELCKMNKEDFLRATTLYNTEVLLSHLSYLRES [D40W]	-0.887 ± 0.21
NMTTNERRVIVPADPTLWTQEHVRQWLEWAIKEYSLMEIMTSFFQNMDGKELCKMNKEDFLRATTLYNTEVLLSHLSYLRES [D40M]	-0.67 ± 0.2
NMTTNERRVIVPADPTLWTQEHVRQWLEWAIKEYSLMEITTSFFQNMDGKELCKMNKEDFLRATTLYNTEVLLSHLSYLRES [D40T]	-0.268 ± 0.12
NMTTNERRVIVPADPTLWTQEHVRQWLEWAIKEYSLMEIYTSFFQNMDGKELCKMNKEDFLRATTLYNTEVLLSHLSYLRES [D40Y]	-0.686 ± 0.26
NMTTNERRVIVPADPTLWTQEHVRQWLEWAIKEYSLMEIRTSFFQNMDGKELCKMNKEDFLRATTLYNTEVLLSHLSYLRES [D40R]	-0.469 ± 0.084
NMTTNERRVIVPADPTLWTQEHVRQWLEWAIKEYSLMEIVTSFFQNMDGKELCKMNKEDFLRATTLYNTEVLLSHLSYLRES [D40V]	-0.892 ± 0.16
NMTTNERRVIVPADPTLWTQEHVRQWLEWAIKEYSLMEIPTSFFQNMDGKELCKMNKEDFLRATTLYNTEVLLSHLSYLRES [D40P]	-0.162 ± 0.11
